From IntAct's records for PubMed 22198837

B1: Histone chaperone RTT106 (Saccharomyces cerevisiae), P40161 (parent)
chain: MSKLFLDELPESLSRKIGTVVRVLPSSLEIFEELYKYALNENSNDRSGRHKKPRIDVSSDLLKTDEISETNTIFKLEGVSVLSPLRKKLDLVFYLSNVDGSPVITLLKGNDRELSIYQLNKNIKMASFLPVPEKPNLIYLFMTYTSCEDNKFSEPVVMTLNKENTLNQFKNLGLLDSNVTDFEKCVEYIRKQAILTGFKISNPFVNSTLVDTDAEKINSFHLQCHRGTKEGTLYFLPDHIIFGFKKPILLFDASDIESITYSSITRLTFNASLVTKDGEKYEFSMIDQTEYAKIDDYVKRKQMKDKSMSEELKAKSKSKGQATDGTADQPSILQEATRQMQDEKKAGVFSDDDEENDQNFEAESDLSDGSGQESSDGAEDGEEAEEDDEEDDEEEDKKGQSALNRDNSFASINGQPEQELQYKEFKEPLELEDIPIEIDNDDDEDDEDGSGVEYD

Variants of: B1
Conditions: with h3_yeast HHT1, P61830

| Variant | effect of a mutation on the interaction |
| --- | --- |
| T265E | disrupting interaction strength |
| S80E | disrupting interaction strength |
| R86A | disrupting interaction strength |
